B1: KAT8 regulatory NSL complex subunit 2 (Homo sapiens), Q9H9L4 (parent)
chain: MNRIRIHVLPTNRGRITPVPRSQEPLSCAFTHRPCSHPRLEGQEFCIKHILEDKNAPFKQCSYISTKNGKRCPNAAPKPEKKDGVSFCAEHVRRNALALHAQMKKTNPGPVGETLLCQLSSYAKTELGSQTPESSRSEASRILDEDSWSDGEQEPITVDQTWRGDPDSEADSIDSDQEDPLKHAGVYTAEEVALIMREKLIRLQSLYIDQFKRLQHLLKEKKRRYLHNRKVEHEALGSSLLTGPEGLLAKERENLKRLKCLRRYRQRYGVEALLHRQLKERRMLATDGAAQQAHTTRSSQRCLAFVDDVRCSNQSLPMTRHCLTHICQDTNQVLFKCCQGSEEVPCNKPVPVSLSEDPCCPLHFQLPPQMYKPEQVLSVPDDLEAGPMDLYLSAAELQPTESLPLEFSDDLDVVGDGMQCPPSPLLFDPSLTLEDHLVKEIAEDPVDILGQMQMAGDGCRSQGSRNSEKASAPLSQSGLATANGKPEPTSIS
B2: KAT8 regulatory NSL complex subunit 1 (Homo sapiens), Q7Z3B3 (parent)
chain: MAAMAPALTDAAAEAHHIRFKLAPPSSTLSPGSAENNGNANILIAANGTKRKAIAAEDPSLDFRNNPTKEDLGKLQPLVASYLCSDVTSVPSKESLKLQGVFSKQTVLKSHPLLSQSYELRAELLGRQPVLEFSLENLRTMNTSGQTALPQAPVNGLAKKLTKSSTHSDHDNSTSLNGGKRALTSSALHGGEMGGSESGDLKGGMTNCTLPHRSLDVEHTTLYSNNSTANKSSVNSMEQPALQGSSRLSPGTDSSSNLGGVKLEGKKSPLSSILFSALDSDTRITALLRRQADIESRARRLQKRLQVVQAKQVERHIQHQLGGFLEKTLSKLPNLESLRPRSQLMLTRKAEAALRKAASETTTSEGLSNFLKSNSISEELERFTASGIANLRCSEQAFDSDVTDSSSGGESDIEEEELTRADPEQRHVPLRRRSEWKWAADRAAIVSRWNWLQAHVSDLEYRIRQQTDIYKQIRANKGLIVLGEVPPPEHTTDLFLPLSSEVKTDHGTDKLIESVSQPLENHGAPIIGHISESLSTKSCGALRPVNGVINTLQPVLADHIPGDSSDAEEQLHKKQRLNLVSSSSDGTCVAARTRPVLSCKKRRLVRPNSIVPLSKKVHRNSTIRPGCDVNPSCALCGSGSINTMPPEIHYEAPLLERLSQLDSCVHPVLAFPDDVPTSLHFQSMLKSQWQNKPFDKIKPPKKLSLKHRAPMPGSLPDSARKDRHKLVSSFLTTAKLSHHQTRPDRTHRQHLDDVGAVPMVERVTAPKAERLLNPPPPVHDPNHSKMRLRDHSSERSEVLKHHTDMSSSSYLAATHHPPHSPLVRQLSTSSDSPAPASSSSQVTASTSQQPVRRRRGESSFDINNIVIPMSVAATTRVEKLQYKEILTPSWREVDLQSLKGSPDEENEEIEDLSDAAFAALHAKCEEMERARWLWTTSVPPQRRGSRSYRSSDGRTTPQLGSANPSTPQPASPDVSSSHSLSEYSHGQSPRSPISPELHSAPLTPVARDTPRHLASEDTRCSTPELGLDEQSVQPWERRTFPLAHSPQAECEDQLDAQERAARCTRRTSGSKTGRETEAAPTSPPIVPLKSRHLVAAATAQRPTHR

Variants of: B1
Details: with wdr5_human WDR5, P61964

Question: V413D was tested. Which “effect of a mutation on the interaction” value did it give?
Answer: disrupting interaction

Variants of: B1
Details: with wdr5_human WDR5, P61964
Remark: another data set of the same source

Question: How did the “effect of a mutation on the interaction” value turn out when L411E;V413D was run?
Answer: disrupting interaction

Variants of: B2
Details: with wdr5_human WDR5, P61964

Question: For R592A, which “effect of a mutation on the interaction” value is on record?
Answer: disrupting interaction
